Reference: US20230322958A1 (Genentech, published 2023)

Target: human Notch2 on U-87 MG cells (human, UniProt Q04721 26-2471)
Assay: cell-based or functional assay

human Notch2 on U-87 MG cells, sequence (Q04721 26-2471): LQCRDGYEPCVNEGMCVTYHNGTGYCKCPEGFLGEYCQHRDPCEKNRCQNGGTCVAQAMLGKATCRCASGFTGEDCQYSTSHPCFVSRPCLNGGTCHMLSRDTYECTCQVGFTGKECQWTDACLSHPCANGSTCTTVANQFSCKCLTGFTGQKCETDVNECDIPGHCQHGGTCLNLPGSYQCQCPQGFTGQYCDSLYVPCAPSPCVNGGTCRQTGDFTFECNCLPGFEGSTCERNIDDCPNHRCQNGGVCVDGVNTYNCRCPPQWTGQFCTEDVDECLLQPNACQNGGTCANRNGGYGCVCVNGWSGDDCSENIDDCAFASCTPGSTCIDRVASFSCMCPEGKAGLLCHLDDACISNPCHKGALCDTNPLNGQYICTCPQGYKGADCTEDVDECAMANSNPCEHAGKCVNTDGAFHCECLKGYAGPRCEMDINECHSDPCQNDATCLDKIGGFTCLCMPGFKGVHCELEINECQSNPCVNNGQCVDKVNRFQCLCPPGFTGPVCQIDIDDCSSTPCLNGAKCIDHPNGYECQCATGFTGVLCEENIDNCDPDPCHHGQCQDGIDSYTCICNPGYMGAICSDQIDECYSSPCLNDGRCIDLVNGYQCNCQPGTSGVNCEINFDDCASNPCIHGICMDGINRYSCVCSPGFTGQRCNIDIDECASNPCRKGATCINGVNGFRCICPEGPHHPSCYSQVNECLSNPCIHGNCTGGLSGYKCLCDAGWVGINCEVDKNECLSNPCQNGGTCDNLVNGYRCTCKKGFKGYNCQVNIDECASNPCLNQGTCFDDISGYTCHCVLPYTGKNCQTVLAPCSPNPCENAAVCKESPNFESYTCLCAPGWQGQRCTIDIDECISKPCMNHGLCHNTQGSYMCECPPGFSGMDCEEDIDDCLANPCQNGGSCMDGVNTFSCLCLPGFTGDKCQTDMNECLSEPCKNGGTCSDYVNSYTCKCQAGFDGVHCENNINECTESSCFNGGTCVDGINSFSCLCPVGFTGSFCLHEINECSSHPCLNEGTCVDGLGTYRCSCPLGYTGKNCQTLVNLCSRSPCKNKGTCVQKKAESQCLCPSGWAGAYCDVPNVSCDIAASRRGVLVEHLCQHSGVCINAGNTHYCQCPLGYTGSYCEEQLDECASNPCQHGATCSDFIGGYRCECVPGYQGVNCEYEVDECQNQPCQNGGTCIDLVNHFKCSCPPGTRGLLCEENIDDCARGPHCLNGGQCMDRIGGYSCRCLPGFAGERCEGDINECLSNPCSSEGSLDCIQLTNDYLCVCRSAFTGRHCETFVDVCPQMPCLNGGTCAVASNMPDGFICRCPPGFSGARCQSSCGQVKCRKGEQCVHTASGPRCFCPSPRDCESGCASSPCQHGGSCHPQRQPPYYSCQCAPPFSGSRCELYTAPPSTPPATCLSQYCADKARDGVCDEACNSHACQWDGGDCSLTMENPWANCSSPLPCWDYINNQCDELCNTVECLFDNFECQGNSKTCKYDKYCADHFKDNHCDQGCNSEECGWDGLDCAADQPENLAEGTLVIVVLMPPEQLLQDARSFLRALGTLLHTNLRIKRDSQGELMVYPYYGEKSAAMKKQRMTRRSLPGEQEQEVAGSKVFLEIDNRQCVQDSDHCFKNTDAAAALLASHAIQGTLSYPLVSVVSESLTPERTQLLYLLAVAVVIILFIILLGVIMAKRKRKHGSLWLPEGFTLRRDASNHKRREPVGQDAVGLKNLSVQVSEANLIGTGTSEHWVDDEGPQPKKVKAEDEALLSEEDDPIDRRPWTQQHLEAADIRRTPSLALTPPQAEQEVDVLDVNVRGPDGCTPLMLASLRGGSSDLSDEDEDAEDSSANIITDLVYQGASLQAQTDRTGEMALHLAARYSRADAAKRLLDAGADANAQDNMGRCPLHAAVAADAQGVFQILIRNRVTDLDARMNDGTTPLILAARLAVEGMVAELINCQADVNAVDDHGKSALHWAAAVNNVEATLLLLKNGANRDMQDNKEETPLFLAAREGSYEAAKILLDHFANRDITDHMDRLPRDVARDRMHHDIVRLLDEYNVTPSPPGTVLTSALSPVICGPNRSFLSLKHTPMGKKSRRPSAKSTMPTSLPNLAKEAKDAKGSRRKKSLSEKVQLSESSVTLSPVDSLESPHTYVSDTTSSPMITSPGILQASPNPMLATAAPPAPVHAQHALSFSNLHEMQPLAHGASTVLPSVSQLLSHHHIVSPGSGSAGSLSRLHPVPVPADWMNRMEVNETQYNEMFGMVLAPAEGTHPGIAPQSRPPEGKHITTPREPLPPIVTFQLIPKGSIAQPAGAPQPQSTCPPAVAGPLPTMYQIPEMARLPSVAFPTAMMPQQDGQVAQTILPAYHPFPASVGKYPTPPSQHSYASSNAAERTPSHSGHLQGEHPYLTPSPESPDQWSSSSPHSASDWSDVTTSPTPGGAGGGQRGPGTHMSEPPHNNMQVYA

Row | Binder | DLL Inhibition (IC50) | Jag1 Inhibition (IC50)
1 | 1B2.v104.huFab.LC_K149C.dPEG11_dimer (other, engineered Cys (K149C) joined through maleimide to Bis-Mal-PEG11) heavy: EVQLVESGGGLVQPGGSLKLSCAVSGFTFSDFYMEWVRQASGKGLEWVAAQRNKANDFSIVYSASVKDRFTISRDDSKSTLYLQMNSLKTEDTAVYYCSRDGGKLALDAWGQGTLVTVSSASTKGPSVFPLAPSSKSTSGGTAALGCLVKDYFPEPVTVSWNSGALTSGVHTFPAVLQSSGLYSLSSVVTVPSSSLGTQTYICNVNHKPSNTKVDKKVEPKSCD light: DIQMTQSPSSVSASVGDRVTITCQTSEDIYSGLAWYQQKPGKSPKLLIYGASRLQDGVPSRFSGSGSGTDYTLTISSLQPEDFATYYCQQGFKYPLTFGGGTKVEIKRTVAAPSVFIFPPSDEQLKSGTASVVCLLNNFYPREAKVQWCVDNALQSGNSQESVTEQDSKDSTYSLSSTLTLSKADYEKHKVYACEVTHQGLSSPVTKSFNRGEC | > 1000 nM | 
2 | 1B2.v104.huFab.LC_K149C.PEG_6-arm-Mal-6kD (other, engineered Cys (K149C) joined through maleimide to 6ARM(DP)-MAL-6000) heavy: EVQLVESGGGLVQPGGSLKLSCAVSGFTFSDFYMEWVRQASGKGLEWVAAQRNKANDFSIVYSASVKDRFTISRDDSKSTLYLQMNSLKTEDTAVYYCSRDGGKLALDAWGQGTLVTVSSASTKGPSVFPLAPSSKSTSGGTAALGCLVKDYFPEPVTVSWNSGALTSGVHTFPAVLQSSGLYSLSSVVTVPSSSLGTQTYICNVNHKPSNTKVDKKVEPKSCD light: DIQMTQSPSSVSASVGDRVTITCQTSEDIYSGLAWYQQKPGKSPKLLIYGASRLQDGVPSRFSGSGSGTDYTLTISSLQPEDFATYYCQQGFKYPLTFGGGTKVEIKRTVAAPSVFIFPPSDEQLKSGTASVVCLLNNFYPREAKVQWCVDNALQSGNSQESVTEQDSKDSTYSLSSTLTLSKADYEKHKVYACEVTHQGLSSPVTKSFNRGEC | > 400 nM | 0.21 nM
3 | 1B2.v104.huFab.LC_K149C.dPEG_4-arm-Mal-3kD (other, engineered Cys (K149C) joined through maleimide to a 4-arm maleimide dPEG linker (3 kD)) heavy: EVQLVESGGGLVQPGGSLKLSCAVSGFTFSDFYMEWVRQASGKGLEWVAAQRNKANDFSIVYSASVKDRFTISRDDSKSTLYLQMNSLKTEDTAVYYCSRDGGKLALDAWGQGTLVTVSSASTKGPSVFPLAPSSKSTSGGTAALGCLVKDYFPEPVTVSWNSGALTSGVHTFPAVLQSSGLYSLSSVVTVPSSSLGTQTYICNVNHKPSNTKVDKKVEPKSCD light: DIQMTQSPSSVSASVGDRVTITCQTSEDIYSGLAWYQQKPGKSPKLLIYGASRLQDGVPSRFSGSGSGTDYTLTISSLQPEDFATYYCQQGFKYPLTFGGGTKVEIKRTVAAPSVFIFPPSDEQLKSGTASVVCLLNNFYPREAKVQWCVDNALQSGNSQESVTEQDSKDSTYSLSSTLTLSKADYEKHKVYACEVTHQGLSSPVTKSFNRGEC | > 500 nM | 0.35 nM
4 | 1B2.v104.huFab.LC_K149C.dPEG19_dimer (other, engineered Cys (K149C) joined through maleimide to Bis-Mal-PEG19) heavy: EVQLVESGGGLVQPGGSLKLSCAVSGFTFSDFYMEWVRQASGKGLEWVAAQRNKANDFSIVYSASVKDRFTISRDDSKSTLYLQMNSLKTEDTAVYYCSRDGGKLALDAWGQGTLVTVSSASTKGPSVFPLAPSSKSTSGGTAALGCLVKDYFPEPVTVSWNSGALTSGVHTFPAVLQSSGLYSLSSVVTVPSSSLGTQTYICNVNHKPSNTKVDKKVEPKSCD light: DIQMTQSPSSVSASVGDRVTITCQTSEDIYSGLAWYQQKPGKSPKLLIYGASRLQDGVPSRFSGSGSGTDYTLTISSLQPEDFATYYCQQGFKYPLTFGGGTKVEIKRTVAAPSVFIFPPSDEQLKSGTASVVCLLNNFYPREAKVQWCVDNALQSGNSQESVTEQDSKDSTYSLSSTLTLSKADYEKHKVYACEVTHQGLSSPVTKSFNRGEC | > 1000 nM | 
5 | 1B2.v104.huFab.LC_K149C.PEG_4-arm-Mal-10kD (other, engineered Cys (K149C) joined through maleimide to a 4-arm maleimide PEG linker (10 kD)) heavy: EVQLVESGGGLVQPGGSLKLSCAVSGFTFSDFYMEWVRQASGKGLEWVAAQRNKANDFSIVYSASVKDRFTISRDDSKSTLYLQMNSLKTEDTAVYYCSRDGGKLALDAWGQGTLVTVSSASTKGPSVFPLAPSSKSTSGGTAALGCLVKDYFPEPVTVSWNSGALTSGVHTFPAVLQSSGLYSLSSVVTVPSSSLGTQTYICNVNHKPSNTKVDKKVEPKSCD light: DIQMTQSPSSVSASVGDRVTITCQTSEDIYSGLAWYQQKPGKSPKLLIYGASRLQDGVPSRFSGSGSGTDYTLTISSLQPEDFATYYCQQGFKYPLTFGGGTKVEIKRTVAAPSVFIFPPSDEQLKSGTASVVCLLNNFYPREAKVQWCVDNALQSGNSQESVTEQDSKDSTYSLSSTLTLSKADYEKHKVYACEVTHQGLSSPVTKSFNRGEC | > 500 nM | 0.27 nM
